Experiments:
[1] = target: OmpG-PEG2-biotin (Escherichia coli) (UniProt P76045); assay: cell-based or functional assay
[2] = target: OmpG-PEG2-biotin (Escherichia coli) (UniProt P76045); assay: single channel recording of one OmpG-PEG2-biotin pore, 1 nM mAb
[3] = target: OmpG-PEG2-biotin (Escherichia coli) (UniProt P76045); assay: single channel recording of one OmpG-PEG2-biotin pore, inter-event intervals against mAb concentration
[4] = target: OmpG-PEG2-biotin (Escherichia coli) (UniProt P76045); assay: single channel recording of one OmpG-PEG2-biotin pore in a planar lipid bilayer, dwell times of binding events
[5] = target: OmpG-PEG2-biotin (Escherichia coli) (UniProt P76045); assay: single channel recording of one OmpG-PEG2-biotin pore, from koff and kon
[6] = target: T1, BSA (UniProt P02769 25-607); assay: single channel recording in planar lipid bilayer
T1 construct: Control protein
T1 sequence (P02769 25-607 limits assumed): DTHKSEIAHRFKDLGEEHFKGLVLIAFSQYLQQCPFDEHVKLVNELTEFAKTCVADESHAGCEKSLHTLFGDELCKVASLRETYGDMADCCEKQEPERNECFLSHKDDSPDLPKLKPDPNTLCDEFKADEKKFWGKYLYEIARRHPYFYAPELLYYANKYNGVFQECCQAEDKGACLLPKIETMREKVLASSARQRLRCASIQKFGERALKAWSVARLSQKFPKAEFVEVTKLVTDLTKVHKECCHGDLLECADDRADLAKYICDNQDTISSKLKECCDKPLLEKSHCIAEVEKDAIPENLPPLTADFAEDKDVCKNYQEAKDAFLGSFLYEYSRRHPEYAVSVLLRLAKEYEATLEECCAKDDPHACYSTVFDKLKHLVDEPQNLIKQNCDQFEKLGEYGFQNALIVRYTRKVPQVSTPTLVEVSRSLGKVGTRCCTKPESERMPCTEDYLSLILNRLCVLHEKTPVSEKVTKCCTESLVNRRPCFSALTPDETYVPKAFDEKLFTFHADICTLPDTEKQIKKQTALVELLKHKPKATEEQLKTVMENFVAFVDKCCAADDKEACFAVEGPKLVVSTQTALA

Row | Molecule | Event frequency [1] [s⁻¹] | Gating duration [1] [s] | Inter-event duration [1] [s] | Open probability [1] | Relative conductance of open state (%) [1] [%] | open probability of the mAb bound state at -50 mV [1] | mean inter-event interval at 1 nM mAb [2] [s] | kon [3] [M⁻¹ s⁻¹] | koff [4] [s⁻¹] | Kd [5] [nM] | binding result [6]
1 | Mouse anti-biotin monoclonal antibody (MS-1048-P1, Thermo Scientific) | 201 | 4.2 | 3.67 | 0.52 | 86.4 | 0.4 | 74.5 | 2.3e+07 | 0.25 | 11.2 | –
2 | OmpG-PEG2-biotin (other, maleimide-PEG2-biotin on Cys 224 (D224C, loop 6), also called OmpG-PEG2-Biotin pore; OmpG-biotin) GEERNDWHFNIGAMYEIENVEGYGEDMDGLAEPSVYFNAANGPWRIALAYYQEGPVDYSAGKRGTWFDRPELEVHYQFLENDDFSFGLTGGFRNYGYHYVDEPGKDTANMQRWKIAPDWDVKLTDDLRFNGWLSMYKFANDLNTTGYADTRVETETGLQYTFNETVALRVNYYLERGFNMDDSRNNGEFSTQEIRAYLPLTLGNHSVTPYTRIGLDRWSNWDWQCDIEREGHDFNRVGLFYGYDFQNGLSVSLEYAFEWQDHDEGDSDKFHYAGVGVNYSF | – | – | – | – | – | – | – | – | – | – | no binding (tested: 1 µM)

Source: patent publication US20150080242A1 (UNIVERSITY OF MASSACHUSETTS, published 2015)
